{"source": "the DeepSol protein solubility set", "data": [{"assay": "soluble on expression in E. coli; label from the status in PepcDB or PDB records", "values": [{"sequence": "RALCDEDMKKVFTRLPSSSAIPLAVRRAQDMFVLMFLLRGLPFVDLAYLRKSDLRDNVITYRRRKTGRPLSVTLTPEALELLKKYMNRDSHSPYLFSLLKSGEGTKEAYREYQLALRSFNQQLTLLGEVLGLNDKLSSYTARHTWATTAYYCEIHPGIISEAMGHSSIKVTETYLKPFRNKKIDEANNQIIDFVKHSIAGVVS", "soluble on expression in E. coli": "not soluble"}, {"sequence": "MGSDKIHHHHHHMPDTTHATIRSARLGDVEHILAEYRQAVAELPREESANLLWRPYDEFKAAVENGLFFVIENAVGSFMAGAGVFDLPGSVEKELGMCYVKKEWRGYGLQNLLLQIRICAATLGHVPDKSGEDAATKSFAALITGVKPANEHSAANTERLGFEPLPTPPSALFNACASCRTPPARDSGRKCCCDFFYLSDARRAEAIEKSLQMENWSRTRNGHGLIVALKIRHLLDIDFRNALHDIVQELRAQEPRVPTPGKQVK", "soluble on expression in E. coli": "not soluble"}, {"sequence": "MGSDKIHHHHHHMEYTSLIFPGDKIDIFASGLSDNSTSYKSSFSDKLTDSMWEITMPVDSGRVVLFQLGTQFDFIIYTQNKTILKSSAIVRQRYRKENMYFLAIELINNLEKIQRRQFFRLPCTIDMDFYEVRYDDKAESELEFCKKMYKNHAINSKNMNTVKSVILDISGGGIRFSLSTPLEEGTYFMAQFSLALEECTQQFNIVCKVINCTQSLDYADRYFARSKFIFDRMTEREKIVRFVFEEERRIRRREME", "soluble on expression in E. coli": "not soluble"}, {"sequence": "MSLTGQLHPAVRVADLLQHINQMKTAEGYGFKQEYESFFEGWDATKKKDKVKGSRQEPMPAYDRHRVKLHPMLGDPNADYINANYIDGYHRSNHFIATQGPKPEMVYDFWRMVWQEHCSSIVMITKLVEVGRVKCSRYWPEDSDTYGDIKIMLVKTETLAEYVVRTFALERRGYSARHEVRQFHFTAWPEHGVPYHATGLLAFIRRVKASTPPDAGPIVIHCSAGTGRTGCYIVLDVMLDMAECEGVVDIYNCVKTLCSRRVNMIQTEEQYIFIHDAILEACLCGETTIPVSEFKATYKEMIRIDPQSNSSQLREEFQTLNSVTPPLDVEECSIALLPRNRDKNRSMDVLPPDRCLPFLISTDGDSNNYINAALTDSYTRSAAFIVTLHPLQSTTPDFWRLVYDYGCTSIVMLNQLNQSNSAWPCLQYWPEPGRQQYGLMEVEFMSGTADEDLVARVFRVQNISRLQEGHLLVRHFQFLRWSAYRDTPDSKKAFLHLLAEVDKWQAESGDGRTIVHCLNGGGRSGTFCACATVLEMIRCHNLVDVFFAAKTLRNYKPNMVETMDQYHFCYDVALEYLEGLESREGHHHHHH", "soluble on expression in E. coli": "soluble"}, {"sequence": "MGSDKIHHHHHHACSSDDDNTVNDETTPPEEEAVVTAPDVVGTYWGNLDISMLPDGSDQEVVIADGLPKFITFSQVSDTEVKMELKEFELFINGNILKFGDIVIDKCAVKKETDASTFTGQQDLTFQGDAAALGTCATSIEGTVQSGNATMNIQVKVPALKQTVKVAFSGVKQVEESGKD", "soluble on expression in E. coli": "not soluble"}, {"sequence": "MNHFELYKLKKAGLTNKNILNILDYQKHQEKSLSLRDMAVVSGCKHPSHFIEAYKQLDIQNLKMEFKQFPSISILDKHYPMALKEIYNPPVLLFFQGNLDLLEKPKLAIVGSRRSSDTGVKSVRKILKELGNRFVIVSGLARGIDTSAHLACLKNGGQTIAIIGTGLDRFYPKENRELQTFLGKNHLVLTEYGPGEEALSYHFPERNRIIAGLSRGILVVEAKNRSGSLITCQIGIEEGRDIFAVPGNILDGKSEGCLQLIKEGATCVTSGMDILSEY", "soluble on expression in E. coli": "not soluble"}, {"sequence": "MSDAGGDVQVAPAAVAQGPMDKEGALRAVLRAAHHADGLAKGLHETCKALDKREAHFCVLAENCDEPQYVKLVETLCAEHQIPLIKVADKKIIGEYCGLCKYDKEGKARKVVGCSSAVVTNWGNEEQGRAILTDYFASKN", "soluble on expression in E. coli": "not soluble"}, {"sequence": "MLQRTLAKSISVTGVGLHSGERVALTLHPAPENSGISFRRTDLDGEMGEQIKLTPYLINDTRLSSTIVTDKGVRVGTIEHIMSALSAYGIDNALIELNAPEIPIMDGSSLPFIYLLQDAGVVDQKAQKRFLKILKPVEIKEAGKWVRFTPYDGFKVTLTIEFDHPVFNRSSPTFEIDFAGKSYIDEIARARTFGFMHEVEMMRAHNLGLGGNLNNAIVIDDTDVLNPEGLRYPDEFVRHKILDAIGDLYIVGHPIIGAFEGYKSGHAINNALLRAVLADETAYDRVEFADSDDLPDAFHELNIRTCGLEHHHHHH", "soluble on expression in E. coli": "not soluble"}, {"sequence": "MAEHPIQGLMETAMESIKEMVDVNTIVGDAVQAPDGTVIIPISKVTFGFAAGGGEFASCCSVDEKGEDSSDDSSKPEIKFPFAGGSGAGVSINPVAFMVVGQGQIKLLPVNINSSLEKILDLIPEIIEKTKDSVKKNLKVKKEIKPGNGESCAKSSKEDENELEHHHHHH", "soluble on expression in E. coli": "soluble"}, {"sequence": "RKLTMNSNYKREDFVNETEVRWCPGCGDYAILAALQRVLPELGLPPEQHVFVSGIGCAGRLPYYMNTYGFHTIHGRATAVATGLKAMREDLCVWVITGDGDALSIGGNHLLHILRRNVNVNILLFNNQVYGLTKGQFSPTSQKGQVTKTSPKGVTSEPINPIMIALASGASFVARAVDKDPVHLASVLKKAYEHKGCSFVEIYQDCNIFNHGAFDDFAVKNNRAENTIILEDGQPLVFGAQKEKALQLDDEQFVQISIDEKTLYKHDEKNLISAMRLARLTFPDYPVPLGVYYQKDRERFTLSQEVKKRPEDLP", "soluble on expression in E. coli": "not soluble"}, {"sequence": "MHPRSKLSQAQRELAVDLFEEGYGSRAVANRLGVRREQVRHLEDRFRLHGRLCLVSKPTKKQYSFDTKMEILRRYRTGELKSDLAKEYGLSSPNLISHWVWQVNKGGSDALQPKPKGRPKGSGQSVPMTEEDTLRRENELLKAEVAYLKKLRDLREQRRG", "soluble on expression in E. coli": "not soluble"}]}]}
